Assay: yeast display, Sf9 membrane polyspecificity reagent, FACS + sequencing; frameworks hold sequencing errors
Method in brief: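 In a synthetic yeast display library (Saccharomyces cerevisiae BJ5465), nanobody expression was induced with galactose for 36–48 hours. FACS gates were set low and high (top ~1%) using anti-HA fluorescence for expression and streptavidin fluorescence for binding of the Sf9 membrane reagent. Each polyreactivity label is drawn from the gate of origin.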
With “QVQLVESVGCLVQAGGSLRLSCAASGRIFTSNAMGWYRQAPGKERELVAAITRRGGTTYYADSVKGRFTISRDNSKNTVYFQMNSLNPEDTAVYYCATIITVASWYDYWGQGTQVTVSS” the “polyreactivity (PSR sort gate)” value was “low polyreactivity”.
With “QVQLVESVGGFVQAGGSLRLSCAASGFTFRIYAMGLYRKATVKERELVAGITWSVGSTYYADSVKGRFTISRDNAKNTVYLQMNSLKPEETAVYYCAVRRNQHVVQLYYWGQGTQGTVSS” the “polyreactivity (PSR sort gate)” value was “low polyreactivity”.
In the case of “QVQLVESVGGFVQAGGSLRLSGAASGRTFNFNTMGWSRQAPGKERELVASITSGGSTNYADSVKVRFTISRDNAKNTVYLQMNILKPEDPAVYYCAVTVSGPYAYDYWGQGTQVTVSS”, the “polyreactivity (PSR sort gate)” value is reported as “low polyreactivity”.
In the case of “QVQLVESVGGFVQAGGSLRLSSAASGFIFRSYAMGSYRQAPGKERELVAVISRRGVNTHYADSVKGRFTISRDYAKYTVYLQMNSLKPEDTAVYDCAKGLTALGDYWGQGSQVTVSS”, the “polyreactivity (PSR sort gate)” value is reported as “high polyreactivity”.
With “QVQLVESVGGFVQARGSLRLSCAASGFTFSYNAMRWYSQAPGKERELVATIRSSGGSTNYADSVKGRFTISRDNAKNTVYVQMNSLKPEDTAVYYCAADFSYYSTYDYWGLGTQVTVSS” the “polyreactivity (PSR sort gate)” value was “low polyreactivity”.
In the case of “QVQLVESVGGIVQAGGSLRLSCAASGRIFGTNTMGWYRQAPGKERELVAGISSSGDSTYYADSVKGRFTISRDNAKNTVYLQMNSLKPEDTAVYYCNVYDYPTYDYWGQGTQVTVSS”, the “polyreactivity (PSR sort gate)” value is reported as “low polyreactivity”.
With “QVQLVESVGGLLQAGGSLRLSCAASGSIFFVYTMGWYRQAPGKERELFATITDSDGGTYYADSVKGRFTISRDNAKNTVYVQMNSLKPEDTAVYYCAAEVEVYFAIYEYWGQGTQVTVSS” the “polyreactivity (PSR sort gate)” value was “low polyreactivity”.
In the case of “QVQLVESVGGLVKAGGSLRLSCAASGSIFGTNAMGWYRQAPGKERELVAVISDGGSTYYADSVKGRFTISRENAKNTVYLQMNSLKPADTAVYYCNTPLESPFYSRVGTTESDHWGQGTQVTVSS”, the “polyreactivity (PSR sort gate)” value is reported as “low polyreactivity”.
With “QVQLVESVGGLVLAGARLRLSCAASGRIFRFYAMGWYREAPGKERELVAAISSGGRTYSADSVKGRFTISRDNAKNTVYLQMNSLKPEDTAVYYCNTPYTVRGRYTSDYWGQGTQVTVSS” the “polyreactivity (PSR sort gate)” value was “high polyreactivity”.
In the case of “QVQLVESVGGLVPAGGSLRLSCAASGFTYPAYTMGWYRQAPGKERELVAAITSSGGNTYYADSVKGRFTISRDNAKNTVYLQMNSLKPEDTAVYYCYADASSSPYTDRQYIGADDSWGQGTQVTVSS”, the “polyreactivity (PSR sort gate)” value is reported as “low polyreactivity”.
With “QVQLVESVGGLVQAGGILRLSCAASGSTFLDNAMGLYRQAPGKERELVAAITQSGSSTYYADSVKGRFTISRDNAKNTVYLQMNSLKPEDTAVYYCAADVPIISFDYWGQGTQVTVSS” the “polyreactivity (PSR sort gate)” value was “low polyreactivity”.
In the case of “QVQLVESVGGLVQAGGRLRLSCAASGLIFDDYSMGCYRQAPGKEREFVSAISWSDGTTYYADSVKGRFTISRDNAKNTVYLQMNSLKPEDTAVYYCAARLARAGYWRRNYYYWGQGTQVTVSS”, the “polyreactivity (PSR sort gate)” value is reported as “high polyreactivity”.
With “QVQLVESVGGLVQAGGRLRLSCAASGLTFTHYTMGWYIQAPGKERELVAAISQTGGSTYYADSVKGRFTISRDNEKNTVYLQMNSQKPEDTADYYCSRVFPRPRPGYYNWGQGTQVTVSS” the “polyreactivity (PSR sort gate)” value was “high polyreactivity”.
With “QVQLVESVGGLVQAGGSLGLTCAASGFIFRYYAMGWYRQAPGLERELVAPINASGGRTYYADSVKGRFTISRDNARNTLYLQMNSLKPEDTAVYYCAAYRSYQTFDYWGQGTQVTVSS” the “polyreactivity (PSR sort gate)” value was “high polyreactivity”.
With “QVQLVESVGGLVQAGGSLLLSCAASGRTFTKYAMGWYRLAPGKEGELVAAISRSGTSTYYADSVKGRFTISRDNEKNTVYLQMNSLKPEDTAVYYCATVSAKYHSVHFGYWGQGTQVTVSS” the “polyreactivity (PSR sort gate)” value was “high polyreactivity”.
For “QVQLVESVGGLVQAGGSLRLICAASGRIFVHYAMGWYRQAPGKERELVAAISWNGGRTFYADSVKGRFTISRDNAKNTVYLQMNSLKPEDTAVSYCAARSRYSLDYWGQGTQVTVSS”, the “polyreactivity (PSR sort gate)” value was “high polyreactivity”.
In the case of “QVQLVESVGGLVQAGGSLRLICAASGSIFIGYAMGWYRQAPGKERELVAAISNSGGRTYYADSVKGRFTISRDYAKNTVYLQMNSLKPDDTAVYYCAARLRYRGRRYDYWGQGTQVTVSS”, the “polyreactivity (PSR sort gate)” value is reported as “high polyreactivity”.
In the case of “QVQLVESVGGLVQAGGSLRLICAASGSIFSRYAMGWYRQAPGKEREFVARITQRGGSTYYADSVKGRFTISRDNAKNTVYLQRQSLKPEDTAVYYCNADHYRRLLAEDYWGQGTQVTVSS”, the “polyreactivity (PSR sort gate)” value is reported as “low polyreactivity”.
With “QVQLVESVGGLVQAGGSLRLSCAASGDTFTSYAMGRYRQAPGKVRELVAAISRRGGSTYYAESVKGRFTISRDNAKNTVYLLMNSLKPEDTAFYYCAAKSYSYTEFDYGGQGTQVTVSS” the “polyreactivity (PSR sort gate)” value was “high polyreactivity”.
For “QVQLVESVGGLVQAGGSLRLSCAASGFIFGSNAIGWYRQAPGKERELVAAITYSGASTYYADSVKGRFTISRDNAKNTVYLQMNRLKPEDTAVYYCATRYSVFVSGRFNYWGQGTQVTVSS”, the “polyreactivity (PSR sort gate)” value was “low polyreactivity”.
In the case of “QVQLVESVGGLVQAGGSLRLSCAASGFIFKSYSMGWYRQAPGKERELVAAISGRGGSTYYADSVKGRFTISRDNAKNTVYLQMNSLKPEDTAVYYCNVVPSTYYQYDYWGQGTQVTVSS”, the “polyreactivity (PSR sort gate)” value is reported as “high polyreactivity”.
For “QVQLVESVGGLVQAGGSLRLSCAASGFIFPYYVMGWYRQAPGKERELVAAITSVGITYYADSVKGRFTISRDNAKNTVYLQMNSLKPEDTAVYYCAADYKYFYDWGSFVEDEYWGQGTQVTVSS”, the “polyreactivity (PSR sort gate)” value was “high polyreactivity”.
For “QVQLVESVGGLVQAGGSLRLSCAASGFIFRPYAMGWSRQAPGKERELVAAISWSGDRTYYADSVKGRFTISRDNAKNTVYLQMNSLKPEDTAVYYCAAEGVTRDYDYWGQGTQVTVSS”, the “polyreactivity (PSR sort gate)” value was “low polyreactivity”.
With “QVQLVESVGGLVQAGGSLRLSCAASGFIFSYYAMGRYRQAPGKERELVATINFSGGRTYYADSVKGRFTISRDNAKNTVYLQMNSLKPEDTAVYYCAAVARSRAAPGVGYWGQGTQVTVSS” the “polyreactivity (PSR sort gate)” value was “high polyreactivity”.
In the case of “QVQLVESVGGLVQAGGSLRLSCAASGFIFTHYAMGWYRQAPGKERELVAAISSGGSTYYADSVKGRFTISRDNAKNTVYLQMNSLKPEDTAVYYCAAVWPWRYYATGENYWGQGTHVTVSS”, the “polyreactivity (PSR sort gate)” value is reported as “high polyreactivity”.
In the case of “QVQLVESVGGLVQAGGSLRLSCAASGFISYYYAMGWYRQAPGKEREFVAAITSSGGSTRYADSVKGRFTISRDNAKNPVYLQMNSLKPEDTAVYYCAARKARPPFPHPFDYYWGQGTQVTVSS”, the “polyreactivity (PSR sort gate)” value is reported as “low polyreactivity”.
In the case of “QVQLVESVGGLVQAGGSLRLSCAASGFIYGWNAMGWYRQAPVKERELVASIRSSGGTTYADSVKGRFTISRDNAKNTVYLQMNSLKAEDNAVYYCARRVLGLLELDYWGQGTQVTVSS”, the “polyreactivity (PSR sort gate)” value is reported as “low polyreactivity”.
In the case of “QVQLVESVGGLVQAGGSLRLSCAASGFTFDYYSMGWYRQATGKERELVAAITTAGSTNYADSVKGRFTISRDNAKNTVSLQINSLKPEDTAVYYCAAYWWPWDISWDDYWGQGTQVNVSS”, the “polyreactivity (PSR sort gate)” value is reported as “high polyreactivity”.
For “QVQLVESVGGLVQAGGSLRLSCAASGFTFGRYAMGWYRQAPGKESELVATITRTGSTNYADSVKGRFTISRDNAKNTVYLQMNSLKPEDTAVYYCAKDWAYRRHWVGFYYWGLGTQVTVSS”, the “polyreactivity (PSR sort gate)” value was “low polyreactivity”.
For “QVQLVESVGGLVQAGGSLRLSCAASGFTFVGNTMGWYRQAPGKERELVAAIRGRDGRTYYADSVKGRFTISRDNAKNTVYLQMNSLKPEDTAVYYCNVDVKYSVRSEFDFWGQGTQVTVSS”, the “polyreactivity (PSR sort gate)” value was “low polyreactivity”.
For “QVQLVESVGGLVQAGGSLRLSCAASGFTFYKYAMGWYRQAPGKEREFVAAIRTRSDSTYYADSVKGRFTISRDNAKNTVYLQMNSLKPEDTAVYYCAAQGYVEVGYSRYYYWGQGTQVTVSS”, the “polyreactivity (PSR sort gate)” value was “high polyreactivity”.
In the case of “QVQLVESVGGLVQAGGSLRLSCAASGIIFVGYAMGWYRPAPGKERELVSAIDLSGDSTYYADSVKGRFTISRDNAKNTVYLQMNSLKPEDTAVYYCAAGYWHRVNGDYDYWGQGTQVTVSS”, the “polyreactivity (PSR sort gate)” value is reported as “high polyreactivity”.
With “QVQLVESVGGLVQAGGSLRLSCAASGITFGRNTMGWYRQAPGKERELVAAISWNGDSTYYADSVKGRFTISRDNAKNTVYLQMNSLKPEDTAVYYCNADDVFLYQTDGLGDYWGQGTQVTVSS” the “polyreactivity (PSR sort gate)” value was “low polyreactivity”.
With “QVQLVESVGGLVQAGGSLRLSCAASGITFNEYAMGWYRQATGKARELVAAISRRGGSTYYADSVKGRFTISRDNAKNTVYLQMYSLKPEDTAVYYCAADPGTPRYQFLWYGYWGQGTQVTVSS” the “polyreactivity (PSR sort gate)” value was “low polyreactivity”.
In the case of “QVQLVESVGGLVQAGGSLRLSCAASGITFRRYAMGWYRQAPGKERELVATIRNSGGGTYYADSVKGRFTISRDNAKNTVYLQMNSLKPEDTAVYYCAAELYFTYYYWGQGTQVTVSS”, the “polyreactivity (PSR sort gate)” value is reported as “high polyreactivity”.
For “QVQLVESVGGLVQAGGSLRLSCAASGLTFRKYAMGWYRQAPGKERELVAGISSGGSTYYADSVKGRFTISRDNAKNTVYLQMNSLKPEDTAVYYCAAKALRTMYYWGQGTQVTVSS”, the “polyreactivity (PSR sort gate)” value was “high polyreactivity”.
With “QVQLVESVGGLVQAGGSLRLSCAASGRIFGSNAMGWYRPAPGKERELVAAISLSGTSTYYADSVKGRFTISRDNAKNTVYLQMNSLKPEDTAVYYCAAGLPGGTYFWGQGTQVTVSS” the “polyreactivity (PSR sort gate)” value was “high polyreactivity”.
In the case of “QVQLVESVGGLVQAGGSLRLSCAASGRIFGYNDMGWYRQEPGKERELVAVISTSGTITYYADSVKGRFTISRDNAKNTVYLQMNSLKPEDTAVYNCAAGSYSRYLYSLYFDFDYWGQGTQVTVSS”, the “polyreactivity (PSR sort gate)” value is reported as “low polyreactivity”.
In the case of “QVQLVESVGGLVQAGGSLRLSCAASGRIFPYYAMGWYIQAPGKERELVATITWRGGITYYADSVKGRFTISRDNAKNTVYLQMNSLKPEDTSVYYCAVRKVYRSSFDYWGQGTQVTVSS”, the “polyreactivity (PSR sort gate)” value is reported as “high polyreactivity”.
In the case of “QVQLVESVGGLVQAGGSLRLSCAASGRIFRWNAMGWYRQAPGKEREFVAAISWSGGSTYYADSVKGRFTISRDNAKNTFYLQMNSLKPEDTAVYYCNKVGYYCVGTSQEFDYWGQGTQVTVSS”, the “polyreactivity (PSR sort gate)” value is reported as “high polyreactivity”.
For “QVQLVESVGGLVQAGGSLRLSCAASGRIFRYYAMGWSRQAPGKERELVAGISRGTSTYYADSVKGRFTISRDNAKNTVYLQMNSLKPEDTAVYYCAKGSIQYFRPYTFYTWGQGTQVTVSS”, the “polyreactivity (PSR sort gate)” value was “high polyreactivity”.
For “QVQLVESVGGLVQAGGSLRLSCAASGRTFAYTAMGWYRQARGKDREWLAAITWSGDSTYYADSVKGRFTISRDNAKNTVSLQKNSLKPEDTAVYYCAADYFGGPSYEFVYWGQGTQVTGSS”, the “polyreactivity (PSR sort gate)” value was “low polyreactivity”.
With “QVQLVESVGGLVQAGGSLRLSCAASGRTFFYNAMGWYRQAPAKERELVAAIDWSGDSTYYADSVKGRFTISRDNAKNTVYLQMNSLKPEDTAVYYCAARRKNRRDYDYYYWGQGTQVTVSS” the “polyreactivity (PSR sort gate)” value was “high polyreactivity”.

Reference: the nanobody polyreactivity screen of Harvey et al. (2022)
